Experimental data taken from US20260000087.

T1: alphaS1-casein, P02662
T1 chain: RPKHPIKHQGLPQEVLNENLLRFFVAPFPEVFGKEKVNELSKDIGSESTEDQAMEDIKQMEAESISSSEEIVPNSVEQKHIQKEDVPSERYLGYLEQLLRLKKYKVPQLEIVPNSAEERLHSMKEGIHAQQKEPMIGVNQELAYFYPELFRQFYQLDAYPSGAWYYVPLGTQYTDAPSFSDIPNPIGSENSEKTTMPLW

B1: aspartic protease represented by SEQ ID NO: 4 (protein)
chain: GEVASEPLTSYLDSQYFGKIYIGTPPQEFTVVFDTGSSDLWVPSVYCKSDACQNHQRFDPSMSSTFQNLGKPLSIQYGTGSMQGFLGYDTVTVSDIVDPQQTVGLSTQEPGDVFTYSEFDGILGLAYPSLASEYSVPVFDNMMNRHLVAQDLFSVYMDRNGQESMLTLGAIDPSYYTGSLHWVPVTLQKYWQFTVDSVTIGGVVVACDGGCQAILDTGTSMLVGPSSDILNIQMAIGATQNQYGEFDIDCGSLSSMPTVVFEINSRMYPLTPSAYTNQDQGFCTSGFQGENNSQQWILGDVFIREYYSVFDRANNRVGLAKAV
B2: aspartic protease or coagulant or chymosin represented by SEQ ID NO: 2 (protein)
chain: GKVARESLTNYLDCQYFGKIYIGTPPQEFTVVFDTGSSDLWVPSVYCNSDACQNHHRFDPSKSSTFQNMDKSLSIQYGTGSMQGLLGYDTVTVSNIVDRHQTVGLSTQEPGDVFTYSEFDGILGLAYPSLASEYSVPVFDNMMDRHLVAQDLFSVYMSRNEQGSMLTLGAIDRSYYTGSLHWIPVTVQEYWQFTVDRVTVDGVVVACDGGCQAILDTGTSMLVGPGSDIFNIQQAIGATEGQFGEFDIDCGRLSSMPTVVFEINGKKYPLPPSAYTSQDQGFCTSGFQGDYSSQQWILGDVFIREYYSVFDRASNRVGLAKAI
B3: aspartic protease or coagulant or chymosin represented by SEQ ID NO: 3 (protein)
chain: GEAAKVTDEPLTNYLDSQYFGKIYIGTPPQEFTVVFDTGSSNLWVPSVYCNSDACQNHHRFNPASSTTFRSTQEPLSIQYGTGSMEGVLGYDTVTVSQIVVPDQIFGLSTQEPGEIFTYSEFDGILGLGYPSLAEDQATPVFDNMMNKNLVAQDLFSVYMSRDSQGSMLILGAIDPSYYTGSLHWVPVTEQGYWQFSVDSITVNGQVVACEGGCQAILDTGTSLLVGPSYDIANIQSIIGATQGQYGEYDINCSNLSSMPTVVVHINGRQYPLPPSAYTNQDQGLCSSGFQSEGSDQLWILGDVFIREYYSVFDRGNNRVGLATAV
B4: bovine chymosin (CHY-MAX Plus from Chr. Hansen A/S) (protein)
chain: GEVASVPLTNYLDSQYFGKIYLGTPPQEFTVLFDTGSSDFWVPSIYCKSNACKNHQRFDPRKSSTFQNLGKPLSIHYGTGSMQGILGYDTVTVSNIVDIQQTVGLSTQEPGDVFTYAEFDGILGMAYPSLASEYSIPVFDNMMNRHLVAQDLFSVYMDRNGQESMLTLGAIDPSYYTGSLHWVPVTVQQYWQFTVDSVTISGVVVACEGGCQAILDTGTSKLVGPSSDILNIQQAIGATQNQYGEFDIDCDNLSYMPTVVFEINGKMYPLTPSAYTSQDQGFCTSGFQSENHSQKWILGDVFIREYYSVFDRANNLVGLAKAI
B5: aspartic protease or coagulant or chymosin represented by SEQ ID NO: 1 (protein)
chain: GKIAREPLTNYLDTEYFGKIQIGSPPQEFTVVFDTGSSDLWVPSVFCNSDACQNHHRFNPSKSSTFQNMNRPLSIQYGTGSMQGFLGYDTVTVSNIVVPHQTVGLSTQEPGDIFTYSEFDGILGLAYPSLASQYSVPVFDNMMKQHLVAQDLFSVYMNSQGQGSMLILGAIDPSYYVGALHWVPVTVQQYWQFTVDRITVDGVVVACDGGCQAILDTGTSLLVGPSSDILNIQTVIGATQGQYGEFDIDCGSLRSKPTVVFEINGREYPLPPTAYTNQDQGFCTSGFQGDDSQQWVLGDVFIREYYSVFDRVNNRVGLAKAI
B6: camel chymosin (CHY-MAX M from Chr. Hansen A/S) (protein)
chain: GKVAREPLTSYLDSQYFGKIYIGTPPQEFTVVFDTGSSDLWVPSIYCKSNVCKNHHRFDPRKSSTFRNLGKPLSIHYGTGSMEGFLGYDTVTVSNIVDPNQTVGLSTEQPGEVFTYSEFDGILGLAYPSLASEYSVPVFDNMMDRHLVARDLFSVYMDRNGQGSMLTLGAIDPSYYTGSLHWVPVTLQQYWQFTVDSVTINGVAVACVGGCQAILDTGTSVLFGPSSDILKIQMAIGATENRYGEFDVNCGNLRSMPTVVFEINGRDYPLSPSAYTSKDQGFCTSGFQGDNNSELWILGDVFIREYYSVFDRANNRVGLAKAI

Target: T1, alphaS1-casein, P02662

Row | Protein | Degradation of intact alphaS1-casein (% of reference A) (% of reference A)
1 | B1 | 105
2 | B2 | 71
3 | B3 | 204
4 | B4 | 100
5 | B5 | 135
6 | B6 | 38
